# Source: patent US20030232013A1, “Therapeutic and diagnostic targeting of cancers cells with tumor homing peptides” (priority 2002, published 2003)
# Where two headings read alike, the source gives them in different places. Bridge positions count the residues as written; N and C are the ends. Peptide text beside a SMILES is read from it. * marks the point of attachment. DOTA = O=C(O)CN1CCN(CC(=O)O)CCN(CC(=O)*)CCN(CC(=O)O)CC1
# Assays:
# [1] = In vivo biodistribution in T47D tumor bearing SCID mice; conditions: female, ICR SCID, mouse, iv, total radioactivity, n = 4; for tissue uptake at 1 h / dose excreted at 1 h: 1 hour post-injection; for tissue uptake at 24 h / dose excreted at 24 h: 24 hours post-injection
# Description: (§1) In vivo iodistribution studies. Four- to 5-week old female ICR SCID ([…]) outbred mice were obtained from Taconic (Germantown, N.Y.). The mice were housed five animals per cage in sterile micro isolator cages in a temperature- and humidity-controlled room with a 12-hour light/12-hour dark schedule. The animals were fed autoclaved rodent chow (Ralston Purina Company, St. Louis, Mo.) and water ad libitum. Animals were housed one week prior to inoculation of tumor cells and anesthetized for injections with isoflurane (Baxter Healthcare Corp., Deerfield, Ill.) at a rate of 2.5% with 0.4L oxygen through a non-rebreathing anesthesia vaporizer.
# (§2) Human breast cancer MB231 and T47D cells were injected on the bilateral subcutaneous (s.c.) flank with ˜5×10^6 cells in a suspension of 100 μl normal sterile saline per injection site. MB231 and T47D cells were allowed to grow in vivo two to three weeks post inoculation developing tumors ranging in sizes from 0.02-1.30 grams. The biodistribution and uptake of ^111In-DOTA-Phe^19-STh or ^111In-DOTA-6-Ahx-Phe^19-STh in tumor bearing SCID mice was studied. The mice (average weight, 25 g) were injected with aliquots (50-100 μl) of the radiolabeled peptide solution (55-75 kBq) in each animal via the tail vein. Tissues, organs and tumors were excised from the animals sacrificed at 1 hr, 4 hrs and 24 hrs p.i. For blocking studies, an access of non-radioactive 6-Ahx-Phe^19-STh (100 μg) was also injected along with the radiolabeled peptide solution. The radioactivity was measured in a NaI counter and the percent-injected dose per organ and the percent-injected dose per gram tissue were calculated (Tables 5 and 6). Animal studies were conducted in accordance with the highest standards of care as outlined in the NIH guide for Care and Use of Laboratory Animals and the Policy and Procedures for Animal Research at the Harry S. Truman Memorial VA Hospital and according to approved protocols.
# [2] = tested on: T47D tumor bearing SCID mice; assay: as above; conditions: 4 hours post-injection, n = 4
# Description: as §1, §2
# [3] = T47D tumor, T47D tumor, read-out: biodistribution, Tumor
# [4] = blood, read-out: biodistribution, Blood
# [5] = heart, read-out: biodistribution, Heart
# [6] = kidney, read-out: biodistribution, Kidney
# [7] = large intestine, read-out: biodistribution, Large Intestine
# [8] = liver, read-out: biodistribution, Liver
# [9] = lung, read-out: biodistribution, Lung
# [10] = muscle, read-out: biodistribution, Muscle
# [11] = pancreas, read-out: biodistribution, Pancreas
# [12] = small intestine, read-out: biodistribution, Small Intestine
# [13] = spleen, read-out: biodistribution, Spleen
# [14] = stomach, read-out: biodistribution, Stomach
# [15] = urine, read-out: biodistribution, Urine (Avg % ID)
smiles,measurement,setting,value
"CC(C)C[C@@H]1NC(=O)[C@H](CCC(=O)O)NC(=O)[C@@H]2CSSC[C@@H]3NC(=O)[C@H](C)NC(=O)[C@@H]4CCCN4C(=O)[C@H](CC(N)=O)NC(=O)[C@H](CSSC[C@H](NC(=O)[C@H](Cc4ccc(O)cc4)NC(=O)[C@H](CC(N)=O)NC(=O)[C@H](CO)NC(=O)[C@H](CO)NC(=O)[C@H](CC(N)=O)NC(=O)CN4CCN(CC(=O)O)CCN(CC(=O)O)CCN(CC(=O)O)CC4)C(=O)N2)NC(=O)[C@H](CSSC[C@@H](C(=O)N[C@@H](Cc2ccccc2)C(=O)O)NC(=O)CNC(=O)[C@H]([C@@H](C)O)NC3=O)NC1=O [^111In-DOTA-Phe^19-STh, metal not drawn] ({DOTA}-NSSNYCCELCCNPACTGCF-OH; disulfide 6-11, 7-15, 10-18)",tissue uptake at 1 h,"[1]; T47D tumor, T47D tumor, Blocking (100 μg non-radioactive 6-Ahx-Phe^19-STh co-injected), read-out: biodistribution, Tumor",0.43 ± 0.2 %ID/g
same,tissue uptake at 1 h,[1]; [3],0.67 ± 0.23 %ID/g
same,tissue uptake at 4 h,"[1]; T47D tumor, T47D tumor, 4 hours post-injection, read-out: biodistribution, Tumor",0.17 ± 0.16 %ID/g
same,tissue uptake at 24 h,[1]; [3],0.14 ± 0.12 %ID/g
same,tissue uptake at 1 h,"[1]; blood, Blocking (100 μg non-radioactive 6-Ahx-Phe^19-STh co-injected), read-out: biodistribution, Blood",0.57 ± 0.19 %ID/g
same,tissue uptake at 1 h,[1]; [4],0.82 ± 0.34 %ID/g
same,tissue uptake at 4 h,"[1]; blood, 4 hours post-injection, read-out: biodistribution, Blood",0.01 ± 0.01 %ID/g
same,tissue uptake at 24 h,[1]; [4],0.02 ± 0.01 %ID/g
same,dose excreted at 24 h,"[1]; faeces, read-out: biodistribution, Feces (Avg % ID)",1.4 ± 0.7%
same,tissue uptake at 1 h,"[1]; heart, Blocking (100 μg non-radioactive 6-Ahx-Phe^19-STh co-injected), read-out: biodistribution, Heart",0.13 ± 0.1 %ID/g
same,tissue uptake at 1 h,[1]; [5],0.15 ± 0.11 %ID/g
same,tissue uptake at 24 h,[1]; [5],0.08 ± 0.08 %ID/g
same,tissue uptake at 1 h,"[1]; kidney, Blocking (100 μg non-radioactive 6-Ahx-Phe^19-STh co-injected), read-out: biodistribution, Kidney",5.88 ± 1.47 %ID/g
same,tissue uptake at 1 h,[1]; [6],4.7 ± 1.4 %ID/g
same,tissue uptake at 4 h,"[1]; kidney, 4 hours post-injection, read-out: biodistribution, Kidney",2.02 ± 0.35 %ID/g
same,tissue uptake at 24 h,[1]; [6],1.04 ± 0.33 %ID/g
same,tissue uptake at 1 h,"[1]; large intestine, Blocking (100 μg non-radioactive 6-Ahx-Phe^19-STh co-injected), read-out: biodistribution, Large Intestine",0.17 ± 0.06 %ID/g
same,tissue uptake at 1 h,[1]; [7],0.57 ± 0.21 %ID/g
same,tissue uptake at 4 h,"[1]; large intestine, 4 hours post-injection, read-out: biodistribution, Large Intestine",1.74 ± 1.04 %ID/g
same,tissue uptake at 24 h,[1]; [7],0.1 ± 0.03 %ID/g
same,tissue uptake at 1 h,"[1]; liver, Blocking (100 μg non-radioactive 6-Ahx-Phe^19-STh co-injected), read-out: biodistribution, Liver",0.19 ± 0.04 %ID/g
same,tissue uptake at 1 h,[1]; [8],0.26 ± 0.12 %ID/g
same,tissue uptake at 4 h,"[1]; liver, 4 hours post-injection, read-out: biodistribution, Liver",0.06 ± 0.01 %ID/g
same,tissue uptake at 24 h,[1]; [8],0.03 ± 0.01 %ID/g
same,tissue uptake at 1 h,"[1]; lung, Blocking (100 μg non-radioactive 6-Ahx-Phe^19-STh co-injected), read-out: biodistribution, Lung",0.45 ± 0.16 %ID/g
same,tissue uptake at 1 h,[1]; [9],0.56 ± 0.19 %ID/g
same,tissue uptake at 4 h,"[1]; lung, 4 hours post-injection, read-out: biodistribution, Lung",0.09 ± 0.06 %ID/g
same,tissue uptake at 24 h,[1]; [9],0.06 ± 0.03 %ID/g
same,tissue uptake at 1 h,"[1]; muscle, Blocking (100 μg non-radioactive 6-Ahx-Phe^19-STh co-injected), read-out: biodistribution, Muscle",0.18 ± 0.08 %ID/g
same,tissue uptake at 1 h,[1]; [10],0.19 ± 0.08 %ID/g
same,tissue uptake at 4 h,"[1]; muscle, 4 hours post-injection, read-out: biodistribution, Muscle",0.06 ± 0.04 %ID/g
same,tissue uptake at 24 h,[1]; [10],0.04 ± 0.03 %ID/g
same,tissue uptake at 1 h,"[1]; pancreas, Blocking (100 μg non-radioactive 6-Ahx-Phe^19-STh co-injected), read-out: biodistribution, Pancreas",0.16 ± 0.07 %ID/g
same,tissue uptake at 1 h,[1]; [11],0.21 ± 0.09 %ID/g
same,tissue uptake at 4 h,"[1]; pancreas, 4 hours post-injection, read-out: biodistribution, Pancreas",0.04 ± 0.05 %ID/g
same,tissue uptake at 24 h,[1]; [11],0.02 ± 0.03 %ID/g
same,tissue uptake at 1 h,"[1]; small intestine, Blocking (100 μg non-radioactive 6-Ahx-Phe^19-STh co-injected), read-out: biodistribution, Small Intestine",0.25 ± 0.1 %ID/g
same,tissue uptake at 1 h,[1]; [12],1.37 ± 0.55 %ID/g
same,tissue uptake at 4 h,"[1]; small intestine, 4 hours post-injection, read-out: biodistribution, Small Intestine",0.44 ± 0.07 %ID/g
same,tissue uptake at 24 h,[1]; [12],0.09 ± 0.02 %ID/g
same,tissue uptake at 1 h,"[1]; spleen, Blocking (100 μg non-radioactive 6-Ahx-Phe^19-STh co-injected), read-out: biodistribution, Spleen",0.12 ± 0.07 %ID/g
same,tissue uptake at 1 h,[1]; [13],0.19 ± 0.16 %ID/g
same,tissue uptake at 4 h,"[1]; spleen, 4 hours post-injection, read-out: biodistribution, Spleen",0.13 ± 0.15 %ID/g
same,tissue uptake at 24 h,[1]; [13],0.12 ± 0.08 %ID/g
same,tissue uptake at 1 h,"[1]; stomach, Blocking (100 μg non-radioactive 6-Ahx-Phe^19-STh co-injected), read-out: biodistribution, Stomach",0.61 ± 0.64 %ID/g
same,tissue uptake at 1 h,[1]; [14],0.53 ± 0.47 %ID/g
same,tissue uptake at 4 h,"[1]; stomach, 4 hours post-injection, read-out: biodistribution, Stomach",0.17 ± 0.06 %ID/g
same,tissue uptake at 24 h,[1]; [14],0.02 ± 0.01 %ID/g
same,dose excreted at 1 h,"[1]; urine, Blocking (100 μg non-radioactive 6-Ahx-Phe^19-STh co-injected), read-out: biodistribution, Urine (Avg % ID)",93.1 ± 1.5%
same,dose excreted at 1 h,[1]; [15],86.4 ± 5%
same,dose excreted at 4 h,"[1]; urine, 4 hours post-injection, read-out: biodistribution, Urine (Avg % ID)",96.1 ± 1%
same,dose excreted at 24 h,[1]; [15],97.8 ± 0.7%
same,"biodistribution, Heart",[2],0.00 ± 0.00 % ID/gm
